In PMC9960219, “Structural and DNA end resection study of the bacterial NurA-HerA complex” (BMC Biology, 2023):
Blank lines part the entries; values can stand above or below the compound they belong to.

Key:
[1] = target: T1, drHerA (Deinococcus radiodurans, UniProt Q9RW32); assay: X-ray crystal structure, […] Å; type: binding; conditions: Mg2+; crystals set up with ADP, NaF and AlCl3, only ADP seen; one ADP per protomer
T1 construct: gene DR_0837; full length, residues 1-618, N-terminal 6xHis tag (pET28a), expressed in E. coli Rosetta (DE3); homohexamer; ADP site between two protomers
T1 sequence (Q9RW32 1-618): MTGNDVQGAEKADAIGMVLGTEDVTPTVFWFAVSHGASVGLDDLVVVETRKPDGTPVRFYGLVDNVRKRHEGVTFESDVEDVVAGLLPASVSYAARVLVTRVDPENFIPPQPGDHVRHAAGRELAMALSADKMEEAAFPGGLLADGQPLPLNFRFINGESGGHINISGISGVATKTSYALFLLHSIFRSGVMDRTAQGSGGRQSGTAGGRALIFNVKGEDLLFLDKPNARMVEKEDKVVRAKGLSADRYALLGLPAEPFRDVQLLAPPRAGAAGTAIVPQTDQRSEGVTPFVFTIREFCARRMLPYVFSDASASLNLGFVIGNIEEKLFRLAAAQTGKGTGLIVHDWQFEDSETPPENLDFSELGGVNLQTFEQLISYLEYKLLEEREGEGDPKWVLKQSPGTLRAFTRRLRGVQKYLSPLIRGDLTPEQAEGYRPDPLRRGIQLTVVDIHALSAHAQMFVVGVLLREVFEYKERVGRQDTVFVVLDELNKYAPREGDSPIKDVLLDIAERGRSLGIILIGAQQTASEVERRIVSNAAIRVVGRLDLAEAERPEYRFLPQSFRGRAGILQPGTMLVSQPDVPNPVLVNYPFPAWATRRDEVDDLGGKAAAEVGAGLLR

[2] = target: Deinococcus radiodurans HerA (Deinococcus radiodurans); assay: crystal structure; drHerA without any ligand, space group P3(1)21, 3.0 Å; sitting drop at 289 K, 0.1 M HEPES (pH 7.5), 1.3 M NaAc
[3] = target: Deinococcus radiodurans HerA (Deinococcus radiodurans); assay: cryo-EM structure; purified drNurA-HerA complex, low-resolution (~9 Å) map, 200 kV, 3D refinement with C2 symmetry; drHerA crystal structure and an AlphaFold2 model of drNurA fitted and refined into the map
[4] = target: Deinococcus radiodurans HerA (Deinococcus radiodurans); assay: crystal structure; drHerA with ADP bound (set up with ADP•AlF3, MgAc), space group P2(1)2(1)2(1), 3.4 Å; 0.2 M MgCl2, 0.1 M HEPES (pH 7.8), 14% PEG 3350
[5] = target: Deinococcus radiodurans HerA (Deinococcus radiodurans); assay: cryo-EM structure; 2D class averages (top views) of purified drHerA alone, with ADP, with ADPNP or with 46-bp dsDNA; 200 kV Tecnai F20
[6] = target: Deinococcus radiodurans HerA (Deinococcus radiodurans)
[7] = target: HerA with point mutations D78A, E80A, and D81A (Deinococcus radiodurans)
[8] = target: Deinococcus radiodurans NurA (Deinococcus radiodurans); assay: cryo-EM structure; purified drNurA-HerA complex, low-resolution (~9 Å) map, 200 kV, 3D refinement with C2 symmetry; drHerA crystal structure and an AlphaFold2 model of drNurA fitted and refined into the map

Compound: Nc1ncnc2c1ncn2[C@@H]1O[C@H](COP(=O)(O)OP(=O)(O)O)[C@@H](O)[C@H]1O [ADP]
X-ray crystal structure, 3.4 Å [1]: each protomer is bound to one ADP molecule

stoichiometry N [2]: 6 | stoichiometry N [3]: 6 | stoichiometry N [4]: 6 | stoichiometry N [5]: 6
Compound: Deinococcus radiodurans HerA (enzyme)

ATPase activity of drHerA with drNurA, Mn2+, ds DNA (ATPase mol/protein/min) [6]: 4.18 | ATPase activity of drHerA with drNurA, Mn2+, no DNA (ATPase mol/protein/min) [6]: 0.42 | ATPase activity of drHerA with drNurA, Mn2+, ss DNA (ATPase mol/protein/min) [6]: 28.6 | ATPase activity of HerA^m with drNurA, Mn2+, ds DNA (ATPase mol/protein/min) [7]: 0.38 | ATPase activity of HerA^m with drNurA, Mn2+, no DNA (ATPase mol/protein/min) [7]: < 0.01 | ATPase activity of HerA^m with drNurA, Mn2+, ss DNA (ATPase mol/protein/min) [7]: 6.01 | stoichiometry N [8]: 2
Compound: Deinococcus radiodurans NurA (enzyme)
